Assay results: patent publication US20240317851A1 (LANOVA MEDICINES, published 2024)
Read-outs that look alike come from different tables or passages of the source.

B1: 83-F6A6 (antibody, V domains shown)
VH: QVQLQQSAPELARPGASVRMSCKASGYTFTTYTMHWVKQRPGQGLEWIGFIIPSSGYTEYNQNLKDKTTLTADKASSTAYMQLTSLTSEDSAVYYCARQFSLITTGFGYALDYWGQGTSVTVSS
VL: DIVMTQSRKFMSTSVGDRVSITCKASQDVSTAVAWYQQKPGQSPKLLLYWASTRHTGVPDRFTGSGSGTDYTLTISSVQAEDLALYYCQQHYSTPLTFGAGTKLELK
notes: Tested as chimeric antibody
B2: 23-B2F11 (antibody, V domains shown)
VH: EVQLQQSGPELVKPGASVKISCKTSGYTFTEYTMHWVKQSHGRSLEWIGGINPNNGDTIYNQKFKGKATLTVDKSSSTAYMELRSLTSEDSAVYYCARRGGYGNFNFDYWGQGTTLTVSS
VL: DIQMTQSSSSFSVSLRDRVTITCKASEDIYNRLAWYQQKPGNAPRLLISGATSLETGVPSRFSGSGSGKDYTLSITSLQTEDVATYYCQQYWSSPYTFGGGTKVEIK
notes: Tested as chimeric antibody
B3: 97-C10E1-2-P1.z9 (antibody, V domains shown)
VH: QVQLQQSGAEVKKPGASVKVSCKASGYAFTGYTMNWVRQAPGQNLEWIGLSNPYNAGTIYNQKFKGRVTLTVDKSTSTVYMELLSLRSEDTAVYYCARNYYYGSSYAYYYAMDYWGQGTTVTVSS
VL: DAQMTQSPSSLSASVGDRVTITCRSSTGAVTTSNYANWVQQKPGKAFKGLIGGTNNRAPGVPARFSGSLSGTDAALTISSLQPEDFATYFCALWYSNHWVFGGGTKVEIK
B4: z5-MMAE (antibody, V domains shown)
VH: QVQLVQSGAEVKKPGASVKVSCKASGYAFTGYTMNWVRQAPGQGLEWIGLSNPYNAGTIYNQKFKGRVTMTVDKSTSTVYMELSSLRSEDTAVYYCARNYYYGSSYAYYYAMDYWGQGTTVTVSS
VL: DIVVTQSPSSLSTSVGDRVTITCRSSTGAVTTSNYANWVQEKPGKAFKGLIGGTNNRAPGVPARFSGSLSGDDAALTISSAQPEDFATYFCALWYSNHWVFGGGTKVEIK
modifications: MMAE conjugated to the antibody; residues and drug load not stated
B5: z5-Eribulin (antibody, V domains shown)
VH: QVQLVQSGAEVKKPGASVKVSCKASGYAFTGYTMNWVRQAPGQGLEWIGLSNPYNAGTIYNQKFKGRVTMTVDKSTSTVYMELSSLRSEDTAVYYCARNYYYGSSYAYYYAMDYWGQGTTVTVSS
VL: DIVVTQSPSSLSTSVGDRVTITCRSSTGAVTTSNYANWVQEKPGKAFKGLIGGTNNRAPGVPARFSGSLSGDDAALTISSAQPEDFATYFCALWYSNHWVFGGGTKVEIK
modifications: eribulin conjugated to the antibody; residues and drug load not stated
B6: 97-C10E1-2-P1.z4 (antibody, V domains shown)
VH: QVQLVQSGAEVKKPGASVKVSCKASGYAFTGYTMNWVRQAPGQGLEWIGLSNPYNAGTIYNQKFKGRVTMTVDKSTSTVYMELSSLRSEDTAVYYCARNYYYGSSYAYYYAMDYWGQGTTVTVSS
VL: DAQMTQSPSSLSASVGDRVTITCRSSTGAVTTSNYANWVQQKPGKAFKGLIGGTNNRAPGVPARFSGSLSGTDAALTISSLQPEDFATYFCALWYSNHWVFGGGTKVEIK
B7: 97-C10E1-2-P1.z7 (antibody, V domains shown)
VH: QVQLQQSGAEVKKPGASVKVSCKASGYAFTGYTMNWVRQAPGQNLEWIGLSNPYNAGTIYNQKFKGRVTLTVDKSTSTVYMELLSLRSEDTAVYYCARNYYYGSSYAYYYAMDYWGQGTTVTVSS
VL: EAVVTQSPATLSVSPGERATLSCRSSTGAVTTSNYANWVQEKPGQAFRGLIGGTNNRAPGIPARFSGSLSGDEATLTISSLQSEDFAVYFCALWYSNHWVFGGGTKVEIK
B8: 67-C12E11 (antibody, V domains shown)
VH: EVQLQQSGPELVKPGASVKISCKTSGYTFTEYTMHWVKQSHGKSLEWIGGINPNNGGTSYNQKFKGKATLTVDKSSSTAYMELRSLTSEDSAVYYCARGMVVAFYFDSWGQGTTLTVSS
VL: DIQMTQSPASQSASLGESVTITCLASQTIGSWLAWYQQKPGKSPQLLIYAATSLADGVPSRFSGSGSGTKFSFKISSLQAEDFVSYYCQQLYSTPYTFGGGTKLEIK
notes: Tested as chimeric antibody

Columns and labels:
[1] = target: T1, human Claudin 6 (human, UniProt P56747 1-220); assay: flow cytometry, OVCAR3 cells (endogenous CLDN6), Ab titrated from 100 nM
T1 sequence (looked up): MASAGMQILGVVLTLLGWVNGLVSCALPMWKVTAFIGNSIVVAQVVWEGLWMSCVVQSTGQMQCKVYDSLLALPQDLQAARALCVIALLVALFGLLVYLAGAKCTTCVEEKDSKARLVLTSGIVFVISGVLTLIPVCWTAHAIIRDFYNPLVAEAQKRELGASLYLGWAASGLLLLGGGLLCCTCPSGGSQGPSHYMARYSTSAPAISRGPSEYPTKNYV
Experimental: In this example, FACS binding of chimeric Abs to Ovcar3 and Ov90 cells with claudin 6 endogenous expression were assessed using flow cytometry.
Claudin 6 endogenous expression cell line were incubated with chimeric Abs (from 100 nM, 6-fold dilution, 8 points) for 60 minutes at 4° C. Cells were pelleted and washed twice with 2% FBS/PBS buffer, and stained with fluorescent conjugated secondary antibody at 4° C. for 30 minutes. After that the cells were washed twice and resuspended in 80 μL of 2% FBS/PBS buffer. Fluorescent signal of binding was detected using Agilent. The EC50 was calculated using the GraphPad software.

[2] = target: T2, human Claudin 3 (human, UniProt O15551 1-220); assay: flow cytometry, CHOK1/H_CLDN3 cells, Ab titrated from 100 nM
T2 construct: whole, on cells; also called CLDN3
T2 sequence (looked up): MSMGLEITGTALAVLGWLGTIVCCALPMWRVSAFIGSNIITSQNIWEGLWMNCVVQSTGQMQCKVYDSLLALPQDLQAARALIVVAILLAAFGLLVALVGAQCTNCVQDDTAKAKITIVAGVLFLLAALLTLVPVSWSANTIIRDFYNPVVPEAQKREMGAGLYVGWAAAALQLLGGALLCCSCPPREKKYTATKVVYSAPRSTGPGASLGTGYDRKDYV
Experimental: (§1) In this example, cell-based binding of hu Abs on human CLDN3 expressing cells were assessed using flow cytometry.
(§2) Briefly, the CHOK1/H_CLDN3 cells were incubated with hu-Abs (from 100 nM, 6 folds dilution, 8 points). After incubation at 4° C. for 60 minutes. Cells were pelleted and washed twice with 2% FBS/PBS buffer, and stained with fluorescent conjugated secondary antibody at 4° C. for 30 minutes. After that the cells were washed twice and resuspended in 80 μL of 2% FBS/PBS buffer. Fluorescent signal of binding was detected using Agilent. The EC50 was calculated using the GraphPad software.

[3] = target: T3, human Claudin 9 (human, UniProt O95484 1-217); assay: flow cytometry, HEK293/H_CLDN9 cells, Ab titrated from 100 nM
T3 construct: whole, on cells; also called CLDN9; CLND9
T3 sequence (looked up): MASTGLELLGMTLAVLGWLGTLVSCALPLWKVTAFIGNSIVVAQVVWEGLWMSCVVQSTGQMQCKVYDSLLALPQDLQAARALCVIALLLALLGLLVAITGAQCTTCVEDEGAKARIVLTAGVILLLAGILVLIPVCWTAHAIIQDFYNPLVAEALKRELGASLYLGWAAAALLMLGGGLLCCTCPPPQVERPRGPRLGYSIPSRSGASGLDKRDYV

[4] = target: T1, human Claudin 6; assay: cell-based or functional assay
[5] = target: T1, human Claudin 6; assay: flow cytometry, HEK293/H_CLDN6 cells, Ab titrated from 100 nM
Experimental: (§3) In this example, cell based binding of chimeric Abs on human CLDN6 & CLND9 over-expressing cell line were assessed using flow cytometry.
(§4) Briefly, the cells were incubated with chimeric Abs (from 100 nM, 6-fold dilution, 8 points) for 60 minutes at 4° C. Cells were pelleted and washed twice with 2% FBS/PBS buffer, and stained with fluorescent conjugated secondary antibody at 4° C. for 30 minutes. After that the cells were washed twice and resuspended in 80 μL of 2% FBS/PBS buffer. Fluorescent signal of binding was detected using Agilent. The EC50 was calculated using the GraphPad software (LaJolla, CA).

[6] = target: T1, human Claudin 6; assay: cell-based or functional assay; remark: listed apart in the source
[7] = target: T3, human Claudin 9; assay: flow cytometry, HEK293/H_CLDN9 cells, Ab titrated from 100 nM; remark: listed apart in the source
Experimental: as §3, §4

[8] = target: T2, human Claudin 3; assay: flow cytometry, CHOK1/H_CLDN3 cells
Experimental: as §1, §2

[9] = target: T1, human Claudin 6; assay: flow cytometry, HEK293/H_CLDN6 cells, Ab titrated from 100 nM; remark: listed apart in the source
Experimental: In this example, cell-based binding of humanized antibodies (hu Abs) on human CLDN6 expressing cells were assessed using flow cytometry.
Briefly, the HEK293/H_CLDN6 cells were incubated with hu-Abs (from 100 nM, 6 folds dilution, 8 points). After incubation at 4° C. for 60 minutes. Cells were pelleted and washed twice with 2% FBS/PBS buffer, and stained with fluorescent conjugated secondary antibody at 4° C. for 30 minutes. After that the cells were washed twice and resuspended in 80 μL of 2% FBS/PBS buffer. Fluorescent signal of binding was detected using Agilent. The EC50 was calculated using the GraphPad software.

[10] = target: T1, human Claudin 6; assay: cell-based or functional assay; remark: listed apart in the source
[11] = target: T1, human Claudin 6; assay: cell-based or functional assay; remark: listed apart in the source
[12] = target: T1, human Claudin 6; assay: cell-based or functional assay; remark: listed apart in the source

Molecule	Top MFI [1]	Top MFI [2]	Top MFI [3]	Top MFI [5]	Top MFI [7]	binding result [8]	Top MFI [9]	further results
hIgG1 Isotype (antibody)	126	128	140	–	–	–	–	Top MFI ([1]; record 2): 101
B1	227	–	–	258000	23500	–	–	Inhibition Rate (%) (HEK293/H_CLDN6) [4]: 78.6%; internalization Top RLU (HEK293/H_CLDN6) [6]: 710000 RLU
B2	–	–	–	117000	93300	–	–	–
B3	–	297	5810	–	–	no binding (tested: 100 nM (highest concentration tested))	159000	–
B4	–	–	–	–	–	–	–	cytotoxicity IC50 (nM), OV90 cells, 5 days [10]: 0.76 nM; cytotoxicity IC50 (nM), OVCAR3 cells, 5 days [10]: 0.13 nM; cytotoxicity IC50 (nM), PA-1 cells, 5 days [10]: 0.11 nM; cytotoxicity IC50 (nM), CLDN6 High Exp HEK293 cells, 5 days [11]: 0.1 nM; Min cell viability, OV90 (CLDN6 low) [12]: 8%; Min cell viability, OVCAR-3 (CLDN6 mid) [12]: 3.71%; Min cell viability, PA-1 (CLDN6 high) [12]: 4.88%
B5	–	–	–	–	–	–	–	cytotoxicity IC50 (nM), OV90 cells, 5 days [10]: 4.66 nM; cytotoxicity IC50 (nM), OVCAR3 cells, 5 days [10]: 0.11 nM; cytotoxicity IC50 (nM), PA-1 cells, 5 days [10]: 0.46 nM; cytotoxicity IC50 (nM), CLDN6 High Exp HEK293 cells, 5 days [11]: 0.1 nM
B6	–	263	9160	–	–	no binding (tested: 100 nM (highest concentration tested))	185000	–
B7	–	249	1660	–	–	no binding (tested: 100 nM (highest concentration tested))	181000	–
B8	165	–	–	161000	28800	–	–	Inhibition Rate (%) (HEK293/H_CLDN6) [4]: 83.9%; internalization Top RLU (HEK293/H_CLDN6) [6]: 446000 RLU
